Test results from publication PMC6648591 (ACS Omega, 2019).
Non-standard residues stand in square brackets, D forms with d. No end group written: not given here. pGlu = O=C1CC[C@@H](C(=O)O)N1

Assays:
[1] = biological target: T1, mature Rhizomucor miehei lipase (Rhizomucor miehei, UniProt P19515 95-363); test: fluorescence polarisation; 0.9 uM A488-labelled peptide mixed with mature RmL at 0.0002-10 uM, in duplicate; 50 mM HEPES pH 7.5, 100 mM NaCl, 1 mM CaCl2; 30 min at room temperature; Langmuir 1:1 fit; conditions: both partners purified
T1 sequence (looked up): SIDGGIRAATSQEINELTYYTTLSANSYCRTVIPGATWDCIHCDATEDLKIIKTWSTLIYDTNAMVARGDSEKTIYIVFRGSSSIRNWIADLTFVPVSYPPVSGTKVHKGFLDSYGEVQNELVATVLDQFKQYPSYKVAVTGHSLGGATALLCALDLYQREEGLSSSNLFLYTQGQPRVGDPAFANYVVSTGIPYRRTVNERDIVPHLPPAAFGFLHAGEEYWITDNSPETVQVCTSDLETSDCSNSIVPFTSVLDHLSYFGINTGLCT

[2] = biological target: T1, mature Rhizomucor miehei lipase; test: crystal structure; wild-type ProRmL sample, 10 mg/mL; 30% PEG8K, 0.1 M Na-cacodylate pH 6.5, 0.2 M ammonium sulfate; 293 K; molecular replacement with 3TGL; conditions: both partners purified
[3] = biological target: T2, mature RmL (Rhizomucor miehei lipase) (Rhizomucor miehei, UniProt P19515); test: GLAD lipase assay: inhibition of mature RmL by propeptide; assay type: biochemical; conditions: isolated propeptide; RmL–propeptide molar ratio 1:64, 15 min incubation, 0.2 M HEPES, 1 mM CaCl2, 10 ppm Triton X-100, pH 8.5; substrate olive oil/4-methylumbelliferyl oleate on cellulose, detergent model B; room temperature; fluorescence 365/445 nm; Figure 4a
T2 construct: mature RmL; 95–363; 29,537.7; 29,538.2; made in house; host or cells: Aspergillus oryzae
T2 sequence (P19515 whole entry, looked up): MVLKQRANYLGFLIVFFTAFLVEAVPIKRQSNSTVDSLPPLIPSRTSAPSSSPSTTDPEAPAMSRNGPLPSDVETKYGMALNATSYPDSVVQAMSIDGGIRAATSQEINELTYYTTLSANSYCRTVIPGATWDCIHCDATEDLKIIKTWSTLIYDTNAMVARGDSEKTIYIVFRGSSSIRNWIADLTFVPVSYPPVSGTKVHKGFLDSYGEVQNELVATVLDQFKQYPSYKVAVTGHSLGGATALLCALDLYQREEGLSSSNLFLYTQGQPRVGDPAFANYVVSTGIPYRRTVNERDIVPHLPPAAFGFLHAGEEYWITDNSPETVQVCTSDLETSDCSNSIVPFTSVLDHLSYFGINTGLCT
Description: Inhibition of hydrolytic activity was determined by using the industrially relevant GLAD assay, measuring the release of 4-methylumbelliferone (4-MU) by purified mature RmL incubated with and without a propeptide (RmL–propeptide incubated at a molar ratio of 1:64) for 15 min in 0.2 M HEPES, 1 mM CaCl2, and 10 ppm Triton X-100 (adjusted to pH 8.5). As a substrate, we used cellulose cotton linters, Avicel PH-101 (Sigma-Aldrich, 11365), uniformly coated with a 4.5:1 mixture of olive oil (Sigma-Aldrich, O-1514) and 4-methylumbelliferyl oleate (oleic acid 4-methylumbelliferyl ester (Sigma-Aldrich, 75164): 4 mg/mL in n-hexane (Sigma-Aldrich, 15671)). The coated cellulose fibers were suspended in 0.2 M HEPES, 3 mM CaCl2, 0.5 mM MgCl2, and 10 ppm Triton X-100 mixed with 3.3 g/L detergent solution using detergent model B (model B composition: 1% (w/w) NaOH, 7.2% (w/w) LAS, 3% (w/w) SLES, 5.5% (w/w) soy and coco fatty acids, 6.6% (w/w) AEO, 3.33% (w/w) triethanol amine, 2% (w/w) Na-citrate, 0.5% (w/w) DTMPA, 6% (w/w) MPG, 3% EtOH, 1.7% (w/w) glycerol, 1% (w/w) sodium formate, 0.1% (w/w) PCA; adjusted to pH 8.5) and RmL −/+ propeptide. The enzyme activity at room temperature was followed by measuring the fluorescence (kinetic mode) every 30 s at an excitation wavelength of 365 nm and emission wavelength of 445 nm from 1 to 6 min. […]

Rhizomucor miehei lipase = conditions: activity-related mutation in propeptide; cited from earlier work
Source text: The buried surface area between the propeptide and the mature enzyme is ∼1771.2 Å^2 (analyzed using PISA,[23] corresponding to a strong protein–protein interaction).[24] The most significant interactions between the propeptide and mature enzyme from the PISA analysis are given in Table S1 (Supporting Information). One of these interactions involves Leu81, which is one of the activity-related mutations identified in ref ([17]) and is a part of the hydrophobic cluster at the ...

[4] = Zymogram of native PAGE (lipase activity on olive oil plate); assay type: biochemical; conditions: native PAGE gel placed on agarose plate: 50 mM HEPES (pH 7), 0.625% polyvinyl alcohol, 1.9% (v/v) olive oil, 0.05% brilliant green; Figure 8C
Source text: The compositions for native PAGE were as follows. Resolving gel: 12% acrylamide-bis-acrylamide; 0.4 M Tris (pH 8.8), 0.1% APS, 0.04% TEMED. Stacking gel: 5.1% acrylamide-bis-acrylamide; 0.25 M Tris (pH 6.8), 0.1% APS, 0.1% TEMED. Loading dye: 0.06 M Tris (pH 6.8), 0.01% bromophenol blue, 10% glycerol. Running buffer: 3 g/L Tris base, 14.4 g/L glycine. Gel (B) is stained with brilliant blue. Zymogram: After electrophoresis, the native PAGE was placed on an agarose/brilliant blue plate (4% Litex HSB agarose protein grade, 50 mM HEPES (pH 7), 0.625% polyvinyl alcohol, 1.9% (v/v) olive oil, and 0.05% brilliant green (Sigma)).

SDVETKYGMALNATSYC(A488) [propeptide fragment SDVETKYGMALNATSYC-A488]
Kd [1]: 200 nM

B1: Rhizomucor miehei lipase propeptide (cleaved propeptide) (domain or fragment, UniProt P19515 30-94, looked up)
chain: [pGlu]SNSTVDSLPPLIPSRTSAPSSSPSTTDPEAPAMSRNGPLPSDVETKYGMALNATSYPDSVVQAM
modifications: also: N-glycosylation (GlcNAc after EndoH), site not given here, hexose at O-glycosylation site, site not given here
binding result [2]: binds

B2: propeptide: Cleaved propeptide, separated from the mature enzyme, residues 30–94 (protein)
chain: [pGlu]SNSTVDSLPPLIPSRTSAPSSSPSTTDPEAPAMSRNGPLPSDVETKYGMALNATSYPDSVVQAM
modifications: also: N-glycosylation (GlcNAc after EndoH), site not given here, hexose at O-glycosylation site, site not given here
inhibition of lipase activity [3]: clear inhibition of activity

B3: L81V: activity-related propeptide mutation L81V of R. miehei lipase identified in ref 17 (protein, UniProt P19515 25-363, looked up, variant L81V)
pro-form: VPIKRQSNSTVDSLPPLIPSRTSAPSSSPSTTDPEAPAMSRNGPLPSDVETKYGMAVNATSYPDSVVQAMSIDGGIRAATSQEINELTYYTTLSANSYCRTVIPGATWDCIHCDATEDLKIIKTWSTLIYDTNAMVARGDSEKTIYIVFRGSSSIRNWIADLTFVPVSYPPVSGTKVHKGFLDSYGEVQNELVATVLDQFKQYPSYKVAVTGHSLGGATALLCALDLYQREEGLSSSNLFLYTQGQPRVGDPAFANYVVSTGIPYRRTVNERDIVPHLPPAAFGFLHAGEEYWITDNSPETVQVCTSDLETSDCSNSIVPFTSVLDHLSYFGINTGLCT
modifications: pro-form
activity of the mutant (Rhizomucor miehei lipase): increased activity

B4: mature RmL: the mature wild-type enzyme without propeptide, residues 95–363 (protein)
chain: SIDGGIRAATSQEINELTYYTTLSANSYCRTVIPGATWDCIHCDATEDLKIIKTWSTLIYDTNAMVARGDSEKTIYIVFRGSSSIRNWIADLTFVPVSYPPVSGTKVHKGFLDSYGEVQNELVATVLDQFKQYPSYKVAVTGHSLGGATALLCALDLYQREEGLSSSNLFLYTQGQPRVGDPAFANYVVSTGIPYRRTVNERDIVPHLPPAAFGFLHAGEEYWITDNSPETVQVCTSDLETSDCSNSIVPFTSVLDHLSYFGINTGLCT
lipase activity in zymogram at the band corresponding to mature RmL [4]: much stronger in mature RmL than in wild-type ProRmL
